Laboratory results: patent US11155586B2, “Cystine knot scaffold platform” (Genentech, Inc., priority 2015, dated 2021)
Values after ≈ are worked out from the molar mass of the structure shown. Each block holds one compound with its values, some of them ahead of it. No end group written: not given here.

Assays:
hVEGF-A (8-109) [1] = biological target: T1, hVEGF-A (8-109) (Homo sapiens, UniProt P15692); experiment: Phage competition ELISA; assay type: binding; conditions: phage competition ELISA, FIG. 15
T1 sequence (P15692 214-315): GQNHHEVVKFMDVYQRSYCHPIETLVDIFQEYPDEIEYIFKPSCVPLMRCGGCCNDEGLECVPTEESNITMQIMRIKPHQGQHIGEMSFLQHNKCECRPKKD

hVEGF-A (8-109) [2] = biological target: T1, hVEGF-A (8-109); experiment: SPR binding assay (BIACORE 3000, 37° C.); conditions: SPR affinity (Table 37) and cellular IC50 (Table 38), vs variant without F8Y
Experimental: Depending on the format of the assay either a streptavidin sensor (SA) or a dextran-coated (CM5) sensor was utilized as described below.
For use with the SA sensor, VEGF-A was first biotinylated (no more than 2 biotin/VEGF-A) by incubating the protein with EZ-link NHS-PEG4-Biotin (Pierce) in a 1:1.5 molar ratio respectively, in PBS for 2 hours on ice. Reaction was then quenched by addition of 10 molar excess of Glycine pH 8.0 and the sample was buffer exchanged into PBS using an Amicon 0.5 mL 3000 MWCO ultra-centrifugal filters (EMD Millipore). The biotinylation state of the protein was verified by LC-MS analysis. Biotinylated VEGF-A was then captured on the surface until a resonance unit (RU) signal of about ˜400. For immobilization of VEGF-A on CM5 sensor, the surface was first activated with a mixture of N-ethyl-N′-(3-dimethylaminopropyl)carbodiimide hydrochloride and N-hydroxysuccinimide (EDC/NHS) according to the supplier instructions. VEGF-A was then diluted into coupling buffer (0.1 M Acetate Buffer, pH 5.0) and injected until the signal reached about ˜400 RU followed by a wash with 1 M ethanolamine pH 8.0 to quench remaining activated sites.
Following the capture step, a series of the peptide concentrations were prepared in HBS-EP buffer with matching DMSO concentrations to 0.1% and injected at a flow rate of […]. The resulting sensorgrams were then analyzed using a 1:1 binding model to obtain kinetic data and affinities using Scrubber 2.0 (BioLogic Software).

Solubility = assay type: physicochemical; conditions: vs variant without F8Y; read-out: improvement of solubility by F8Y substitution
Source text: In variants derived from VEGF_CKP9.54 (such as the variants in Table 35) the amino acid at position 8 is Phe. Therefore, we sought to mutate Phe8 to Tyr I in some of the variants in Table 35, with the goal of improving affinity and/or solubility of the resulting F8Y variant. […] See Table 37, in which the binding affinities of certain variants (as determined by surface plasmon resonance) are compared, and Table 38 in which the potencies of certain variants (as determined by cellular IC50) are compared. […] VEGF_CKP9.54.90.67.F8Y was selected for further follow-up studies.

LRP6 E1E2 = biological target: T2, LRP6 E1E2 (Homo sapiens, UniProt O75581); experiment: Phage selection / spot phage ELISA against LRP6 E1E2; assay type: binding
T2 sequence (O75581 20-630 limits assumed): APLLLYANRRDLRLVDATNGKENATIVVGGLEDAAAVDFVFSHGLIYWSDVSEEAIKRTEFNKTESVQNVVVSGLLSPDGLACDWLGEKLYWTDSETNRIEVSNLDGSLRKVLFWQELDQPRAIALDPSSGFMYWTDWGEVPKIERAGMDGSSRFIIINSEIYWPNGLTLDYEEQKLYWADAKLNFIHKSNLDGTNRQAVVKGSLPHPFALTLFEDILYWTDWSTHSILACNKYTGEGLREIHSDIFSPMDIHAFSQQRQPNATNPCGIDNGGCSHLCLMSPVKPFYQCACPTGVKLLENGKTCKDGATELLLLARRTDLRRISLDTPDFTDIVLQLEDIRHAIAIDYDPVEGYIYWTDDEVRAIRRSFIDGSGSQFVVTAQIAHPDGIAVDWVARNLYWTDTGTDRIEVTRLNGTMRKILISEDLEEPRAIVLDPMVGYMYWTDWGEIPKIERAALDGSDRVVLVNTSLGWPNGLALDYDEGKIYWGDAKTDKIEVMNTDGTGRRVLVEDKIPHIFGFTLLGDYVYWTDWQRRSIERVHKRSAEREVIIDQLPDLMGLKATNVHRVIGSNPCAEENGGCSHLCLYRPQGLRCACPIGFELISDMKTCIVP
Experimental: After four rounds of binding selection, individual phage clones were picked and inoculated into 450 μl 2YT media containing 50 µg/ml Carbenecillin and M13-KO7 helper phage in 96-well blocks, which were grown at 37° C. overnight. The supernatant was analyzed with spot phage ELISA as follows: hVEGF(8-109) or BSA were coated on 384-well MAXISORP™ immunoplates and phage supernatant diluted (1:3) with PBT buffer was added to the wells. The plates were washed and bound phage was detected with anti-M13-HRP followed by TMB substrate. In these assays, phage binding to BSA alone was tested in parallel to assess background binding. Clones whose binding signals for hVEGF-A (8-109) were more than 3 times higher than to BSA (background) were considered positive. Positive clones were subjected to DNA sequence analysis.
The naïve EETI-II libraries described in Example 2A were cycled through rounds of selection against LRP6 E1E2 protein. Twenty-two unique clones were identified which bound LRP6 E1E2 (Table 46). These initial hits contained variations in amino acid content within loops 1 and 5. […] The newly evolved variants recapitulated a motif which occurs in natural ligands.

[3] = biological target: Wnt1 signaling (Homo sapiens); experiment: Wnt luciferase reporter assay in HEK293 cells, Wnt1; assay type: cell-based
Experimental: HEK293 cells stably transfected with a firefly luciferase Wnt reporter (Gong et al. (2010) PLoS ONE 59: e12682). and pRL-SV40 Renilla luciferase (Promega) were grown to 90% confluence in DMEM:F12 (50:50) supplemented with 10% FBS, 2 mM GLUTAMAX™ and 40 μg/ml hygromycin. Cells were incubated in a 5% CO2 humidified incubator at 37° C. for 24 h. Following the incubation, the cells were trypsinized (0.05% Gibco 15400-54 in PBS) then diluted to 4×10^5 cells/ml in DMEM:F12 (50:50) supplemented with 10% FBS, 2 mM GLUTAMAX™. 20,000 cells were loaded into individual wells of white microtest 96-well optilux plates (catalog no. 353947) and incubated for ˜24 h. Each well was transfected using FUGENE® HD with Wnt1-pCDNA3.2 (5 ng/well) or Wnt3a-pCDNA3.2 (25 ng/well) then grown for 24 h. […]
Luciferase response in all assays was then measured with Promega's DUAL-GLO® kit according to the manufacturer's instructions, except using half the volume of each reagent. Firefly luminescence and Renilla luminescence were measured on a Perkin Elmer ENVISION™ Multilabel Reader. The ratios of firefly luminescence: Renilla luminescence were calculated and normalized to the ratio in control cells expressing or treated with the indicated Wnt protein. […] Statistical significance was determined using the Holm-Sidak method, with alpha=5.000%.

mouse or rat VEGF-A = conditions: cited from earlier work

Wnt1 signaling (Homo sapiens), sequence (O75581 20-1613): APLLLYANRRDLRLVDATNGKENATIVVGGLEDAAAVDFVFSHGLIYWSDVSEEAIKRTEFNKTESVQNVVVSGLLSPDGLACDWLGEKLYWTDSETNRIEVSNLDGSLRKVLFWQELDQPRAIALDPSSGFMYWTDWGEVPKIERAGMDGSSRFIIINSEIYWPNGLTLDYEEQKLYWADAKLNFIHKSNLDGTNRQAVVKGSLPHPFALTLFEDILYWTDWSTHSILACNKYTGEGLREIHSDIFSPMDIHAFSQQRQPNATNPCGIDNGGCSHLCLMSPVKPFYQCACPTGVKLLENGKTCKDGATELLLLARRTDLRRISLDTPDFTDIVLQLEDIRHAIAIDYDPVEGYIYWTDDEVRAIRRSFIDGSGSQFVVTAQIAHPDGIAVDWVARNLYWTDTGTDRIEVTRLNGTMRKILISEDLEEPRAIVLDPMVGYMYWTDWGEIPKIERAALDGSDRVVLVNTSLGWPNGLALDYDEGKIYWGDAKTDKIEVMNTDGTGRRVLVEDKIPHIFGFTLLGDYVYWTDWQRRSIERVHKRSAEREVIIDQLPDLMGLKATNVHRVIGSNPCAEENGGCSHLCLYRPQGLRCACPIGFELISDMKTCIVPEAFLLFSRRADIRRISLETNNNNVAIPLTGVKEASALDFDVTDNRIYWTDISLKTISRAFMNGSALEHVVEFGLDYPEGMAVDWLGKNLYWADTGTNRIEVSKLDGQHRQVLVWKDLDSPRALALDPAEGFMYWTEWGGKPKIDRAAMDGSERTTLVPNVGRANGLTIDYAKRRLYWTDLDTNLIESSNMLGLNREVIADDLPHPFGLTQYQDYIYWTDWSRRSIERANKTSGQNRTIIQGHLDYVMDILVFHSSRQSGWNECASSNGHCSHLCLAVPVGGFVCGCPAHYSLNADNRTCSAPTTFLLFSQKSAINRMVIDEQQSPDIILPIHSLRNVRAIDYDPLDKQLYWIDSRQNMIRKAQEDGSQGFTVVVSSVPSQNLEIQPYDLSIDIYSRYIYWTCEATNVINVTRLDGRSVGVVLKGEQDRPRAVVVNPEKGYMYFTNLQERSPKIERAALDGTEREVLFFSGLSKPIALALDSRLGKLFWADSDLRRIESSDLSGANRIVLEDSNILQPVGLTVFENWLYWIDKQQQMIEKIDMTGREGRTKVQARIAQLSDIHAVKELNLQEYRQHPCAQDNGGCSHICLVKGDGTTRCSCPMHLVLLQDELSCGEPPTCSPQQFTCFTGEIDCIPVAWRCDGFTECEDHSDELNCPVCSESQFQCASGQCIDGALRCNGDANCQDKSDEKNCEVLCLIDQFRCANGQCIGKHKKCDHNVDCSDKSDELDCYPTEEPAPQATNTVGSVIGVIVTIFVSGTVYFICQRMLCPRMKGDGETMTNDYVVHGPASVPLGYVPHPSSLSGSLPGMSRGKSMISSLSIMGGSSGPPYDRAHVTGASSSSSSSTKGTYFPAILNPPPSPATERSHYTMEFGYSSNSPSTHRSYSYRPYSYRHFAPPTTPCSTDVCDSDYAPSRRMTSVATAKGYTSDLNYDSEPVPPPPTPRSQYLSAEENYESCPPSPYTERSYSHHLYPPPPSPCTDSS

improvement of binding affinity for hVEGF-A (8-109) compared to parent clone (hVEGF-A (8-109) [1]): approximately 10 fold
Compound: 9.54-28: C-terminal two-residue extension variant based on 9.54 (Table 39) (GCNIMLPFWGCKQDFDCLAGCICQYYQSCGFH)

Compound: CC[C@H](C)[C@H](NC(=O)[C@@H]1CSSC[C@H](NC(=O)CN)C(=O)N[C@@H](CC(N)=O)C(=O)N[C@@H]([C@@H](C)CC)C(=O)N[C@@H](CCSC)C(=O)N[C@@H](CC(C)C)C(=O)N2CCC[C@H]2C(=O)N[C@@H](Cc2ccc(O)cc2)C(=O)N[C@@H](Cc2c[nH]c3ccccc23)C(=O)NCC(=O)N[C@H]2CSSC[C@H](NC(=O)[C@H](CCC(=O)O)NC(=O)[C@H](Cc3ccccc3)NC(=O)[C@H](CC(=O)O)NC(=O)[C@H](CCCNC(=N)N)NC(=O)CNC2=O)C(=O)N[C@@H](CCSC)C(=O)N[C@@H](CCC(=O)O)C(=O)N[C@@H](CCC(N)=O)C(=O)N1)C(=O)N[C@H]1CSSC[C@@H](C(=O)NCC(=O)O)NC(=O)[C@H](CO)NC(=O)[C@H](CCC(N)=O)NC(=O)[C@H](Cc2ccc(O)cc2)NC(=O)[C@H](Cc2ccc(O)cc2)NC(=O)[C@H](CCC(N)=O)NC1=O [VEGF_CKP9.54.90.67.F8Y]
effect of F8Y mutation on affinity/potency (hVEGF-A (8-109) [2]): modest improvement
solubility (Solubility): ~2000 µg/mL (≈ 572 µM)

Compound: GCNIMLPFWGCGQSFECLAGCICQYYQSCGGS [9.54.1-63]
improvement of binding affinity for hVEGF-A (8-109) compared to parent clone (hVEGF-A (8-109) [1]): approximately 10 fold

Compound: GCNIMLPFWGCGQSFECLAGCICQYYQSCGIA [9.54.1-2]
improvement of binding affinity for hVEGF-A (8-109) compared to parent clone (hVEGF-A (8-109) [1]): approximately 10 fold

Compound: GCNIMLPFWGCGQSFECLAGCICQYYQSCGLS [9.54.1-42]
improvement of binding affinity for hVEGF-A (8-109) compared to parent clone (hVEGF-A (8-109) [1]): approximately 10 fold

Compound: GCNIMLPFWGCGQSFECLAGCICQYYQSCGTR [9.54.1-36]
improvement of binding affinity for hVEGF-A (8-109) compared to parent clone (hVEGF-A (8-109) [1]): approximately 10 fold

Compound: GCNIMLPFWGCGQSFECLAGCICQYYQSCGVH [9.54.1-90]
improvement of binding affinity for hVEGF-A (8-109) compared to parent clone (hVEGF-A (8-109) [1]): approximately 10 fold

S/N (signal to noise ratio as compared to BSA control) (LRP6 E1E2; LRP6 E1E2 vs BSA control): 37.36
ELISA (LRP6 E1E2; binding signal against LRP6 E1E2): 3.10
Compound: LRP6_CKP6 (GCRNSIKRCKQNSDCLAGCVCSVGHGCG)

selectivity for Wnt1 over Wnt3a signaling [3]: 11 fold
Compound: R19: LRP6 E1E2-binding EETI-II variant generated in soluble folded form (GCSNRVKVRACKQDSDCLAGCVCGPNGFCG; ends and bridges not checked; also: three disulfides, pairing not given here)

Compound: bevacizumab
binding to mouse or rat VEGF-A (mouse or rat VEGF-A): do not bind

Compound: ranibizumab
binding to mouse or rat VEGF-A (mouse or rat VEGF-A): do not bind
